The results in this text go back to patent publication US20240200044.

The subject of data set [1] is ATM-L TALEN L3-2 (in cells) A252T,L338S,Q505K,Q745P (full TALE construct numbering) (synthetic construct). The data set is described as follows: cell_activity. To be noted: U2OS.
In data set [2] the test system is ATM-L TALEN L3-1 (in cells) A252T,Q505K,Q745P (full TALE construct numbering) (synthetic construct). The data set can be described thus: cell_activity. To be noted: U2OS.
Data set [3] has as its system ATM-L TALEN L1-2 (A252T) A252T (full TALE construct numbering) (synthetic construct). The data set is described as follows: cleavage_in_vitro. To be noted: canonical 6.3% in same experiment.
The test system of data set [4] is canonical ATM-R TALEN (synthetic construct). The data set can be described thus: cleavage_in_vitro. To be noted: 12 nM, 90 min, paired with canonical ATM-L.

For “TGAATTGGGATGCTGTTT (double strand) [ATM left half-site on-target]”, the activity amounted to 7.97 % indels in data set [1] (HEK293 23.26%) and 7.04 % indels in data set [2].
Regarding “GGAAATGGGATACTGAGT (double strand) [OffA17 left half-site]”, the activity was 0.3 % cleavage in data set [3], under 0.001 % indels in data set [1] (HEK293 0.025%) and under 0.001 % indels in data set [2].
On to “TAGATTGAAATGCTGTTT (double strand) [OffA23 left half-site]”, for which the activity in data set [1] and in data set [2] was under 0.001 % indels in each case.
In the case of “TGAATTGAGAGAAGCATT (double strand) [OffA11 left half-site]”, the activity is 0.002 % indels in data set [1] (not significant, HEK293 <0.001%) and 0.002 % indels in data set [2] (control 0.001%, not significant).
Sequence “TTTATTTTACTGTCTTTA (double strand) [ATM right half-site on-target (sense strand)]” displayed an activity in data set [4] of 31.5 % cleavage.
On to “TGAATAGGAAATATATTT (double strand) [OffA1 left half-site]”, for which the activity is 0.002 % indels in data set [1] and under 0.001 % indels in data set [2].
